Reference: patent US11447754B2, “In vitro methods of chemical conversion using non-stereospecific glutathione lyases” (WISCONSIN ALUMNI RESEARCH FOUNDATION, priority 2017, dated 2022)

What was measured:
Type in all cases: biochemical
[1] = Kinetics analysis of GS-HPV cleavage (conversion into HPV), β(R)-stereoisomer
Procedure: (§1) Kinetics analysis of GS-HPV cleavage. The Reaction Buffer (RB) consisted of 25 mM Tris-HCl (pH 8.5) and 25 mM NaCl. The β(R)- and β(S)-stereoisomers of GS-HPV were separately generated by incubating racemic MPHPV (0.46 mM) in RB with 5 mM reduced glutathione (GSH) and either 38 μg/mL LigF1 or 36 μg/mL LigE, respectively, for several h. This sample, containing a single GS-HPV stereoisomer, guaiacol, and the unreacted MPHPV stereoisomer, was diluted with RB to achieve the desired concentration of GS-HPV for the time course reaction (0.005, 0.011, 0.022, 0.096, or 0.193 mM). An additional 5 mM GSH (dissolved in RB) was added prior to initiation of each time course. […] Assays were performed at 25° C., and at specified time points, 300 μL of the reaction was removed and combined with 100 μL 1 M HCl (Acros Organics; Geel, Belgium) to stop the reaction before HPLC analysis to quantify HPV formed.
(§2) HPLC analysis. After extracellular aromatics were identified using LC-MS, routine analysis and quantification of aromatics were performed using an Ultra AQ C18 5 μm column (Restek, Bellefonte, Pa.) attached to a System Gold HPLC (Beckman Coulter, Brea, Calif.) with running buffers and chromatography conditions described in FIG. 14. […]

[2] = Kinetics analysis of GS-HPV cleavage (conversion into HPV), β(S)-stereoisomer
Procedure: as §1, §2

[3] = Assays to determine activities and stereospecificities of Saro_2872 and Saro_2873
Procedure: Cell-free protein synthesis. Cell-free protein synthesis was run essentially as previously described (Makino et al. 2014). The Saro_2872 polypeptide contained a His6-tag and a Tev protease recognition site on its N-terminus that were not removed. The Saro_2873 polypeptide was synthesized in its native form. Synthesized polypeptides were not purified from the synthesis reaction mixture; assays for enzymatic activity were performed by adding aliquots directly from the synthesis reaction. Concentrations of the Saro_2872 and Saro_2873 polypeptides in the reaction mixtures were approximated using the intensities of the bands in an SDS-PAGE gel.
0.1 mM racemic (β(S) and β(R)) MPHPV was combined with 5.8 mM glutathione (GSH) in reaction buffer (RB; 25 mM Tris-HCl (pH 8.0) and 25 mM NaCl). […] These 212 μL reactions were incubated at 30° C. for several hours, then analyzed via HPLC.
HPLC analysis. Analysis and quantification of aromatic compounds were performed using an Ultra AQ C18 5 μm column (Restek) attached to a System Gold HPLC (Beckman Coulter) with running buffers and methods described in Example 1. The eluent was analyzed for light absorbance between 191 and 600 nm, and absorbances at 280 nm were used for quantification of aromatic metabolites by comparing peak areas to those of standards.

B1: NaGSTNu: Nu-class glutathione S-transferase from Novosphingobium aromaticivorans DSM 12444 (Saro_2595), SEQ ID NO:18; non-stereospecific glutathione lyase (protein)
chain: MSSEYVPPKVWKWDKANGGAFASVNRPVAGPTSERELPVGKHPFQVYSLGTPNGQKATIMLEELLQLGFSEAEYDAWLIKIFEGDQFTSGFVDINPNSKIPAMVDRSGPEPFRVFESGAILMHLAEKFGVFLPTSGPARAECLSWLFWQVGSAPFIGGGFGHFYNYAPIKIEYAIDRYAMETKRLFDVANRRLAESRYLAGDEYTIADLATYTWFGNIYRGEAYGEAATFLSMHEYEHVGRWVGEIDARPGVLRGRLVNSSKGLAERHDASDFDALPPESLQAIVKGF
modifications: Novosphingobium aromaticivorans
notes: non-stereospecific glutathione lyase
- KM with β(R)-GS-HPV, fold higher than with β(S)-GS-HPV [1]: ~5 fold
- kcat/KM with the β(S)-isomer, fold higher than with the β(R)-isomer [2]: ~4 fold

B2: SYK6GSTNu: Nu-class GST from Sphingobium sp. SYK-6 encoded by SLG_04120, SEQ ID NO:22 (protein)
chain: MADSDPSMNQPTGYVPPKVWTWDKENGGQFSNINAPTAGARQDVTLPVGEHPIQLYSLGTPNGQKVTIMLEELLAAGFDAEYDAWLIKIYTGEQFGSDFVAINPNSKIPAMMDHGLDPPLRLFESGSMLVYLAEKFGAFLPTEIRKRTETFNWLMWQMGSAPFVGGGFGHFYAYAPFKIEYAIDRYAMETKRQLDVLDKNLADREFMIGDEITIADFAIFPWYGSIMRGGYNAQEFLSTHEYRNVDRWVTQLSERTGVKRGLLVNSAGRPGGGIAERHSAADLDASIKAAEQEAAKTEA
modifications: Sphingobium sp. SYK-6
- kcat/KM with the β(S)-isomer, fold higher than with the β(R)-isomer [2]: ~10 fold

B3: BaeA: heterodimeric β-aryl etherase of Saro_2872 (SEQ ID NO:40) and Saro_2873 (SEQ ID NO:42) from Novosphingobium aromaticivorans (protein)
chain 1: MSALLYHGEPNGASLTVLAALAETGLDIECRRIDLLAGERHSLPGIVDPVALDLSIEGEGPVLVIDGEAMTESVFLAQYLDEAAGGVGLQPTDAYARWEMMMWCRQITERLSPAAALLGNLATSQSAIAAIPAEDFAILAARIVSDDLRERWQALNDDAVNAAQVADSETKVAAAVDRCEKQLGDGREWLMGTFSIADLVTYSWLAGMEPLRPAAFADAPLVKAWLARTAARPCVQAALARATISEPLRAWAPGPEINRWG
chain 2: MDEVSLYHWEPNANSGKPMLALMEKGVPFSSHYIDMLQFDQHKPEYLAINPQGTIPAMTHNGQVLTESTAIMEYVNDRFDGPDLMPADAQDRWRVRWWMKFMDQWLGPSFSMIGWSVFVGPMVRQRDPAELAAAIDRIPLPERRTAWRKAINGDFSESEMAESRRRVGLGIAKLEEELGKRPYVGSNQYSLADINIFNSTYSLPISQPDLAGKDRTPNIMRWLKRVYTREAVKKTWAMGKTDLAHRYGLIMAEIEG
modifications: Novosphingobium aromaticivorans
- conversion of racemic MPHPV into GS-HPV and guaiacol ([3]; both polypeptides combined, ~24 nM each, 30° C.): half of the MPHPV was converted
- reaction with β(S)-MPHPV ([3]; recombinantly generated Saro_2872-Saro_2873 complex): did not react
